Test results from US20240101675A1 (BIOLOJIC DESIGN, published 2024).
Changes are numbered by the printed parent chain. Like-named read-outs stand apart in the source and are kept apart here. Blank lines part the entries; values can stand above or below the binder they belong to.

Key:
[1] = biological target: T1, recombinant human PD-1 tagged with histidine tag (hPD-1-His) (human, UniProt Q15116 25-167, limits assumed); experiment: yeast surface display flow cytometry: scFv on yeast, 111 nM hPD-1-His, anti-His-APC; median RFU
T1 construct: bought (Reprokine); not shown: histidine tag

[2] = biological target: T1, recombinant human PD-1 tagged with …; experiment: yeast surface display flow cytometry: scFv on yeast, 30 nM hPD-1-His, anti-His-APC; median RFU
[3] = biological target: T2, recombinant human OX40 tagged with histidine tag (hOX40-His) (human, UniProt P43489 29-216); experiment: yeast surface display flow cytometry: scFv on yeast, 90 nM hOX40-His, anti-His-APC; median RFU
T2 construct: bought (Reprokine); also called hOX-His; not shown: histidine tag
T2 sequence (looked up): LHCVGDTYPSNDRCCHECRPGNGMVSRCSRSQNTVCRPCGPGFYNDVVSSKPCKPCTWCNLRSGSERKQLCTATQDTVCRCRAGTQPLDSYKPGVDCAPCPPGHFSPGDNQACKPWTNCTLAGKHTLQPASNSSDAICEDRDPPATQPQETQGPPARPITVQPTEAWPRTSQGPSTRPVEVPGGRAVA

[4] = biological target: T3, recombinant human GITR tagged with histidine tag (hGITR-His) (human, UniProt Q9Y5U5 26-161, limits assumed); experiment: yeast surface display scFv, flow cytometry
T3 construct: bought (Reprokine); not shown: histidine tag
T3 sequence (looked up): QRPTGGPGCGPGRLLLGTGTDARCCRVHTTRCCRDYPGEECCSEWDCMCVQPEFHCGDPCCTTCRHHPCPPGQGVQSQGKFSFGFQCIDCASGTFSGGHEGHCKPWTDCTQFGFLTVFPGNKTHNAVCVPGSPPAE

[5] = biological target: T1, recombinant human PD-1 tagged with …; experiment: yeast surface display scFv, flow cytometry
Experimental: (§1) The library was screened on BioRad S3e Fluorescence Activated Cell Sorter (FACS) for high affinity binders of recombinant h-GITR-His, or recombinant h-PD1-His, or recombinant h-OX40-His (Reprokine) using mouse anti Myc-FITC (Santa Cruze, USA) and goat anti-His-APC (Miltenyi Biotec, Germany) for fluorescence labeling. […] The chosen clones were incubated for 1 hour at room temperature with recombinant h-GITR-His, or hPD1-His, or hOX40-His, at the concentrations described in the example section. Cells were washed and resuspended in ice-cold PBS 0.1% BSA buffer containing a fluorescent labeled secondary antibody as described above for 20 min and analyzed using a flow cytometer. The values obtained were normalized to expression levels.

[6] = biological target: T4, PD-1 on engineered Jurkat effector cells (PD-1/PD-L1 Blockade Bioassay) (UniProt Q15116 25-288, limits assumed); experiment: cell-based or functional assay
[7] = biological target: T2, recombinant human OX40 tagged with …; experiment: direct ELISA, antibody coated, hOX40-His titrated 0 to 500 nM
Experimental: (§2) IgG binding affinity was examined by ELISA experiments. ELISA plates (Greiner Bio-One-high binding) were coated with 50 ul (100 ng) of the tested antibody and incubated for 1 hour at room temperature. Then plates were washed three times with 300 μl PBS buffer containing 0.05% Tween 20 (PBS-T), blocked with 300μ PBS-T supplemented with 1% to 3% BSA, and incubated for 1 hour at room temperature (RT). Antibodies-coated plates were then washed three times with 300 μl PBS-T and incubated with serial dilutions of test ligand either hPD-1-His, or hOX40-His, or hGITR-His (Reprokine, Israel) in a final volume of 50 ul for 1-3 hours. Plates were then washed three times with 300 μl PBS-T and incubated with 50 μl anti-HIS-HRP conjugate that was diluted 1:300 in PBS (Santa Cruz Biotechnology, USA). After an additional wash step, the reaction was developed with 50 ul tetrametylbenzidine (TMB) reagent (Southern biotech, USA), and stopped with 50 ul 0.5N H₂SO₄. […] The binding affinity was determined by fitting the data to a specific binding non-linear regression model on Prisma 8 GraphPad software.

[8] = biological target: T1, recombinant human PD-1 tagged with …; experiment: direct ELISA: antibody coated on the plate, hPD-1-His titrated, anti-His-HRP
Experimental: as §2

[9] = biological target: T4, PD-1 on engineered Jurkat effector …; experiment: cell-based or functional assay; remark: listed apart in the source
[10] = biological target: T2, recombinant human OX40 tagged with …; experiment: direct ELISA: antibody coated on the plate, hOX40-His titrated, anti-His-HRP
Experimental: as §2

[11] = biological target: T3, recombinant human GITR tagged with …; experiment: direct ELISA: antibody coated on the plate, hGITR-His titrated, anti-His-HRP
Experimental: as §2

[12] = biological target: T1, recombinant human PD-1 tagged with …; experiment: direct ELISA: antibody coated on the plate, hPD-1-His titrated, anti-His-HRP; remark: listed apart in the source
Experimental: as §2

[13] = biological target: T3, recombinant human GITR tagged with …; experiment: direct ELISA, antibody coated, hGITR-His titrated 0 to 865 nM
Experimental: as §2
ELISA assays were used to analyze the binding affinity of the IgG1 antibodies.

[14] = biological target: T1, recombinant human PD-1 tagged with …; experiment: yeast surface display scFv, flow cytometry, 250 nM hPD-1-His
Experimental: as §1

recombinant human IL-13 = biological target: T5, recombinant human IL-13 (human, UniProt P35225 35-146); experiment: SPR, IgG captured, hIL-13 as analyte, steady state
T5 construct: also called rh-IL-13; rhIL-13
T5 sequence (P35225 35-146 limits assumed): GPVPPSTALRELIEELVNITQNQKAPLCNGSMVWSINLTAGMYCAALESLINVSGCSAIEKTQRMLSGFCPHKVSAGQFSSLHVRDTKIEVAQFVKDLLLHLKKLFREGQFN
Experimental: Subsequent to a cycle, the analyte and tested antibody were stripped from the chip and new tested Ab was loaded on the chip as described above. KD was determined at a steady state condition.

human TSLP = biological target: T6, human TSLP (human, UniProt Q969D9 29-159); experiment: SPR (ProteOn XPR36), IgG captured, hTSLP as analyte 3.2 to 0.2 nM
T6 construct: also called hTSLP; h-TSLP

[15] = biological target: T7, recombinant human IL-13 (rh-IL-13)-Fc (human, UniProt P35225 35-146, limits assumed); experiment: yeast surface display scFv, flow cytometry, 10 nM rh-IL-13
T7 construct: used for yeast surface display labelling; not shown: Fc (detected with anti human Fc)
T7 sequence (P35225 35-146 limits assumed): as above

[16] = biological target: T8, recombinant human TSLP (hTSLP)-Fc (human, UniProt Q969D9 29-159, limits assumed); experiment: yeast surface display flow cytometry, 10 nM hTSLP-Fc; MFI normalized to expression and to the positive control
T8 construct: used for yeast surface display labelling; also called rhTSLP; not shown: Fc

- binding result [4]: binds
- binding result [5]: binds
B3: G8 (GITR Library) (scFv, V domains shown)
VH: QVQLVESGGGVVQPGRSLRLDCKASGITFSNSGMHWVRQAPGKGLEWVAVIWYDGSLRYYADSVKGRFTISRDNSKNTLFLQMNSLRAEDTAVYYCASNDDYWGQGTLVTVSS
VL: EIVLTQSPATLSLSPGERATLSCRASQSVSDNLAWYQQKPGQAPRLLIYDADNRATGIPARFSGSGSGTDFTLTISSLEPEDFAVYYCQQSSNLPRTFGQGTKVEIK
notes: not shown: linker

- IC50, cellular reporter PD1/PDL1 blocking assay (PD-1 dependent luminescence) [6]: ~2.5 nM
- EC50 [7]: ~26 nM
- EC50 (read off the curve) [8]: ~0.6 nM
- IC50 (read off the curve); PD-1/PD-L1 Blockade Bioassay, luciferase RLU [9]: ~2 nM
- EC50 (read off the curve) [10]: ~30 nM
B4: BDG32.007 (antibody, human IgG1, V domains shown)
VH: B3 VH with L57K, R58T, S98T
VL: B3 VL with S30E, D31H, N32Y, D52G, S91Y, N93D, L94W, R96L
notes: human IgG1 format of clone 3212ACOXC5A

- EC50 [7]: ~24 nM
- EC50 (read off the curve) [8]: ~0.9 nM
- EC50 (read off the curve) [10]: ~20 nM
B5: BDG32.008 (antibody, human IgG1, V domains shown)
VH: B3 VH with T28D, S98T
VL: B3 VL with S30E, D31H, N32Y, I48V, D52S, S91Y, L94W, R96L
notes: human IgG1 format of clone 3212ACOXC7A

- binding result [2]: binds
- binding result [3]: binds
B6: 3212ACOXC61 (OX40 library) (scFv, V domains shown)
VH: B3 VH with T28A, L57K, R58T, S98T
VL: B3 VL with S30I, D31H, N32Y, D52S, S91Y, S92T, L94W, R96L
notes: not shown: linker

- binding result [2]: binds
- binding result [3]: binds
B8: 3212ACOXC23 (OX40 library) (scFv, V domains shown)
VH: B3 VH with T28D, V48L, L57K
VL: B3 VL with S30I, D31H, N32Y, D52S, S91Y, S92E, L94W, R96L
notes: not shown: linker

- binding result [4]: binds
- binding result [5]: binds
B10: G5 (GITR Library) (scFv, V domains shown)
VH: B3 VH with Q13H, L20V, S98T
VL: B3 VL with E79A
notes: not shown: linker

- binding result [14]: binds
- binding result [4]: binds
B11: G1 (GITR Library) (scFv, V domains shown)
VH: B3 VH with V2A, P14A, S32R, S98T
VL: B3 VL
notes: not shown: linker

- Kd (recombinant human IL-13): 21.6 nM
- Kd (human TSLP): 4.5 nM
- koff (human TSLP): 0.00129 s⁻¹
- kon (human TSLP): 287000 M⁻¹ s⁻¹
B15: BDG33.003 (antibody, human IgG1, V domains shown)
VH: QMQLVESGGGVVQPGRSLRLSCAASGFTFRTYGMHWVRQAPGKGLEWVAVIWYDGSNKHYADSVKGRFTITRDNSKNTLNLQMNSLRAEDTAVYYCARAPQWELTAEAFDIWGQGTMVTVSS
VL: SYVLTQPPSVSVAPGQTARITCGGNLIGSKLVHWYQQKPGQAPVLVVYDDSDRPSLIPERFSGSNSGNTATLTISRVEAGDEADYYCQVWDSSSDGVVFGGGTKLTVL
notes: also called BGD33.003; Clone C2 as IgG1

- binding result [16]: binds
- relative affinity (normalized MFI against the positive control) [15]: > 20 % of positive control
B16: C40 (yeast-displayed scFv clone) (scFv, V domains shown)
VH: B15 VH with A99S, L104W, T105V, A106H, I111L
VL: B15 VL with L26N, L56R, S92T
notes: also called C40-VH-L-VL; not shown: linker

More lines, now with the values behind:

B1: G2 (GITR Library) (scFv, V domains shown)
VH: B3 VH with S98T
VL: B3 VL
notes: also called Clone G2; not shown: linker
- binding result [1]: binds

B2: 1B_seq96_13753_B01_4279975 (OX40 Library) (scFv, V domains shown)
VH: B3 VH with L57K, S98T
VL: B3 VL with S30I, D31H, N32Y, D52S, S91Y, L94W, R96L
notes: not shown: linker
- binding result [2]: binds
- binding result [3]: binds

B7: BDG32.005 (antibody, human IgG1, V domains shown)
VH: B3 VH with S98T
VL: B3 VL with Q89M, P95A
notes: human IgG1 format
- IC50, cellular reporter PD1/PDL1 blocking assay (PD-1 dependent luminescence) [6]: ~614 nM
- EC50 (read off the curve) [11]: ~4 nM
- EC50 (read off the curve) [12]: ~3 nM
- EC50 [13]: ~4 nM

B9: BDG32.004 (antibody, human IgG1, V domains shown)
VH: B3 VH with I27F, S98T
VL: B3 VL with A34Q, N53T
- EC50 (read off the curve) [12]: ~2 nM
- EC50 [13]: ~13 nM

B12: BDG33.004 (antibody, human IgG1, V domains shown)
VH: B15 VH with E103M, T105V, I111L
VL: B15 VL with L56R, G96H
notes: human IgG1; also called BGD33.004; Clone C6 as IgG1
- Kd (recombinant human IL-13): 57.4 nM
- Kd (human TSLP): 3.33 nM
- koff (human TSLP): 0.00114 s⁻¹
- kon (human TSLP): 344000 M⁻¹ s⁻¹

B13: C6 (yeast-displayed scFv clone) (scFv, V domains shown)
VH: B15 VH with E103M, T105V, I111L
VL: B15 VL with L56R, G96H
notes: also called Clone C6; C6-VH-L-VL; not shown: linker
- relative affinity (normalized MFI against the positive control) [15]: > 20 % of positive control

B14: C2 (yeast-displayed scFv clone) (scFv, V domains shown)
VH: B15 VH
VL: B15 VL
notes: also called Clone C2; C2-VH-L-VL; not shown: linker
- relative affinity (normalized MFI against the positive control) [15]: > 20 % of positive control

B17: C9 (yeast-displayed scFv clone) (scFv, V domains shown)
VH: B15 VH with A99S, L104W, T105V, A106H, I111L
VL: B15 VL with S51G, L56W
notes: also called Clone C9; C9-VH-L-VL; not shown: linker
- relative affinity (normalized MFI against the positive control) [15]: > 20 % of positive control
